# Measured values reported in the nanobody polyreactivity screen of Harvey et al. (2022).
# Experiment: yeast display, Sf9 membrane polyspecificity reagent, FACS + sequencing; frameworks hold sequencing errors
# How it was run: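 Sorting gates, low and high (top ~1%), were placed on anti-HA fluorescence to track expression and on streptavidin fluorescence to track reagent binding. A clone's polyreactivity label is taken from the gate it came out of. The reagent was 10% biotinylated, detergent-solubilized Sf9 membrane, applied for 1 hour at 4 °C to galactose-induced yeast display cells.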
row,Sequence,polyreactivity (PSR sort gate)
1,QVQLVESGGGLVQAGGSLRLSCAASGITFVHYAMGWYRQAPGKERELVAAISSGGGSTYYADSVKGRFTISRDNAKNTVYLQMNSLKPGVTAVYYCAAYVLPYGEYDYWGQGTQVTVSS,low polyreactivity
2,QVQLVESGGGLVQAGGSLRLSCAASGITFVLNALGWYRQAPRKERELVARISWSTGSTYYADSVKGRFTISRDNAKNTVYLQMNSLKPEDTAVYYCAVDYNVQSLYVVVEGEYWGQGTQVTVSS,low polyreactivity
3,QVQLVESGGGLVQAGGSLRLSCAASGITFVLYAMGWYRQAPGKERELVAAITWRGGSTYYADSVKGRFTISRDNAKNTVYLQMNSLKPEDTAVYYCAAVQFTSYRQGDYWGQGTQVTVSS,low polyreactivity
4,QVQLVESGGGLVQAGGSLRLSCAASGITFVNYAMGWYIQAPGKERELVAAISQSGAITFYADSVKGRFTISRDYAKNNVYLQMNSLKPEDTEVYYCAARRRRGDRSAYDYWGQGTQVTVSS,high polyreactivity
5,QVQLVESGGGLVQAGGSLRLSCAASGITFVPNAMGWYRQAPGKERELVARIDNGVSTNYADSVKGRFTISRDNAKNTVYLQMNSLKPEDTAVYYCAKDGYWGDWDQYYWGQGTQVTVSS,low polyreactivity
6,QVQLVESGGGLVQAGGSLRLSCAASGITFVPYAMGWYRQAPGKERELVAAISSSGGSTYYADSVKGRFTISRDNAKNTVYLQMNSLKPEDTAVYYCNVRTHSYIGMDYWGQGTQVTVSS,low polyreactivity
7,QVQLVESGGGLVQAGGSLRLSCAASGITFVRNAKGWYRPAPGTERELVAAISSGGSTYYADSVKGRFTISRDNAKNTVYLQMNSLKPEDTAVYYCAVLSSWRFSGYDYWGQGTQVTVSS,low polyreactivity
8,QVQLVESGGGLVQAGGSLRLSCAASGITFVRNALGWYRQAPGKEREFVAAISWSGGSTYYADSVKGRFTISRDNAKNTVYLQMNSLKPEDTAVYYCNAGSSYLSRFPLDYWGQGTQVTVSS,high polyreactivity
9,QVQLVESGGGLVQAGGSLRLSCAASGITFVRYAMGWYRQAPGKERELVAAISSGGRTIYADSVKGRFTISRDHANNTVFVHMNSLKPEDTAVYYCSKRRARSGQDYDYWGQGTQVTVSS,low polyreactivity
10,QVQLVESGGGLVQAGGSLRLSCAASGITFVRYAMGWYRQAPGKERELVAAISSGGSTHYADSVKGRFTISRDNAKNTVYLQMNSLKPEDTAVYYCAAQWTESSLYRFGYLGQGTQVTVSS,high polyreactivity
11,QVQLVESGGGLVQAGGSLRLSCAASGITFVSYAMGWYRQAPGKERELVAAISSWSGGTTYYADSVKGRFTISRDNAKNTVYLQMNSLKPEDTAVYYCAAVSFGSYRLGYWGQGTQVTVSS,high polyreactivity
12,QVQLVESGGGLVQAGGSLRLSCAASGITFVWNAMGWYRQAPGKERELVATISRGGVRTYYADSVKGRFTISRDNAKNTVYLQMNSLKPEDTAVYYCAADGSYVHWEYGYWGQGTQGTVSS,low polyreactivity
13,QVQLVESGGGLVQAGGSLRLSCAASGITFVYYAMGWYRQAPGNERELVATIDRSGTSTYYADSVKGRFTISRDNAKNTVVLQMTSLKQEDTAVYDCNAHRYAFYQYYRRMDYWGKGTQVTVSS,high polyreactivity
14,QVQLVESGGGLVQAGGSLRLSCAASGITFVYYDMGWYRQAPGKERELVAAISSDGSTYYADSVKGRFTISRDNAKNTVYLQMNSLKPEDSAVYYCAADYFNYRGYTYLGDYWGQCTQVTVSS,low polyreactivity
15,QVQLVESGGGLVQAGGSLRLSCAASGITFWFNAMGWYRQAPGKERELVAAITSGVDTNYADSVKGRFTISRDNAKNTVYLQMNSLKPEDTAVYYCAAQGGRLKRGRTTSDYWGQGTQVTVSS,low polyreactivity
16,QVQLVESGGGLVQAGGSLRLSCAASGITFWHNTMGWYRQAPGKERELVAAISWTGGRTYYADSVKGRFTISRDNAKNTVNFQMNSLNPEDTAVNYCAADFSWTPSGNYDSWGQGTQVTVSS,low polyreactivity
17,QVQLVESGGGLVQAGGSLRLSCAASGITFWKYAMGWYRQAPGKERELVAAISKSGGSTYYADSVKGRFTISRDNAKNTVYLQMNSLKPEDTAVYYCAAYPQFWYWDYNYWGQGTQVTVSS,high polyreactivity
